Measured values from patent publication US9260728B2, “Terpene synthases from Santalum” (UNIVERSITY OF BRITISH COLUMBIA, priority 2009, dated 2016).

Key:
Format in all cases: biochemical
[1] = GC-FID determination of reaction products of terpene synthases from FPP with magnesium or manganese
[2] = as above; remark: listed apart in the source
Procedure: Enzyme assays for all recombinant proteins were done in triplicate using the GC vial method described by O'Maille et al. (Anal. Biochem. 335:[…] (2004). For enzyme assays where only product identification was needed, 10 μg of protein was used in a final volume of 500 μL of reaction buffer (25 mM HEPES, 10% glycerol, 5 mM DTT and 10 mM of either Mg^2+ or Mn^2+. Substrates (FPP and GPP) were added to a final reaction concentration of 100 μM. Vials were overlaid with 500 μL of hexane to trap volatile products and incubated at 30° C. for 2 h. Mixtures were vortexed for 1 min to extract all volatiles and the vials were centrifuged to separate the organic layer.
Product mixtures were analysed by GC-MS in scan mode for product identification. A standard containing the three santalenes and α-trans-bergamotene was prepared by flash chromatography of 2 mL of neat S. album oil over silica and eluted in hexane. A final yield of 25 mg was resuspended in EtOAc and purity was confirmed by GC-FID with conditions described below. All mass spectra were compared to the NIST 2005 library and the literature. Retention indices were determined for all compounds using an n-alkane standard and compared to the literature (R. P. Adams, “Identification of essential oil components by gas chromatography/mass spectrometry,” Allured Publishing Corporation, Carol Stream, Ill. (1995)).
(§1) GC-FID was performed on a Shimadzu GC2010 with a 30 m 0.25 mm ID, 0.25 μm film DB-WAX column with He as the carrier gas. Splitless injection (2 μL) was used for all analyses. Conditions were as follows: injector 200° C., detector 250° C., column flow rate 1 mL/min. Oven program: 40° C. for 3 min, then 8° C./min to 180° C., held 5 min, then 10° C./min to 220° C., held 10 min. Needle height was adjusted to only draw from the upper organic layer of all sample vials. GC-MS was performed on a Shimadzu GC2010 with the same DB-WAX column and using He as the carrier gas. Conditions were as follows: injector 200° C., MS interface 240° C., ion source 200° C. Oven program: 40° C. for 3 min, then 8° C./min to 180° C., held 5 min, then 10° C./min to 220° C., held 10 min. Solvent cut time was set to 5 min. For product identification, total ion monitoring was used, scanning from m/z 45 to m/z 300. For kinetic assays, single ion monitoring of the sesquiterpene base ions m/z 91, 93 and 94 were used. Likewise monoterpene base ions (m/z 69, 71 and 93) were monitored. An internal standard (isobutyl benzene, 30 μM) was added to the hexane used to overlay each reaction. Detector response factors were calculated based on the santalene standard prepared earlier and used to determine the product concentrations for kinetic analysis.

[3] = Steady-state enzyme kinetic assays
Procedure: For determination of steady-state enzyme kinetic constants, conditions were as described previously except the enzyme concentration was kept at 10 nM. Substrate concentrations ranged from 1 uM to 100 uM, and reactions were incubated at 30° C. for exactly 5 mins. Reactions were quenched by the addition of 500 μL 0.5 M EDTA, pH 8.0 and vortexed as above.
as §1

B1: SauSSy: santalene synthase from Santalum austrocaledonicum, gene SEQ ID NO:3, protein SEQ ID NO:4 (protein, listed as Santalum austrocaledonicum)
chain: MDSSTATAMTAPFIDPTDHVNLKTDTDASENRRMGNYKPSIWNYDFLQSLATHHNIVEERHLKLAEKLKGQVKFMFGAPMEPLAKLELVDVVQRLGLNHRFETEIKEALFSIYKDESNGWWFGHLHATSLRFRLLRQCGLFIPQDVFKTFQNKTGEFDMKLCDNVKGLLSLYEASYLGWKGENILDEAKAFATKYLKSAWENISEKWLAKRVKHALALPLHWRVPRIEARWFIEAYEQEANMNPTLLKLAKLDFNMVQSIHQKEIGELARWWVTTGLDKLAFARNNLLQSYMWSCAIASDPKFKLARETIVEIGSVLTVVDDAYDVYGSMDELDLYTSSVERWSCVEIDKLPNTLKLIFMSMFNKTNEVGLRVQHERGYNSIPTFIKAWVQQCKSYQKEARWFHGGHTPPLEEYSLNGLVSIGFPLLLITGYVAIAENEAALDKVHPLPDLLHYSSLLSRLINDIGTSPDEMARGDNLKSIHCYMNGTGASEEVAREHIKGVIEENWKILNQCCFDQSQFQEPFITFNLNSVRGSHFFYEFGDGFGVTDSWTKVDMKSVLIDPIPLGEE
modifications: SauSSy Protein
**Q.** Which “Relative % composition in oil produced by enzyme: epi-β-santalol” value [1] does the source give for B1 here?
**A.** Its value is 4.8%.

**Q.** And the “Relative % composition in oil produced by enzyme: α-santalol” value [1]?
**A.** The value was 51.3%.

**Q.** And the “E-β-farnesene among reaction products (GC-FID)” value ([2]; FPP Mg, mean)?
**A.** The value was 1.4.

**Q.** And the “Z-β-farnesene among reaction products (GC-FID)” value ([2]; FPP Mg, mean)?
**A.** Its value is 0.6.

**Q.** What about the “epi-β-santalene among reaction products (GC-FID)” value ([2]; FPP Mg, mean) of the same molecule?
**A.** Its value is 4.8.

**Q.** And the “α-E-bergamotene among reaction products (GC-FID)” value ([2]; FPP Mg, mean)?
**A.** Its value is 14.5.

**Q.** And the “α-santalene among reaction products (GC-FID)” value ([2]; FPP Mg, mean)?
**A.** The value was 51.3.

**Q.** And the “β-santalene among reaction products (GC-FID)” value ([2]; FPP Mg, mean)?
**A.** Its value is 27.4.

**Q.** What about the “E-β-farnesene among reaction products (GC-FID)” value ([2]; FPP Mg, replicate 1) of the same molecule?
**A.** Its value is 1.5.

**Q.** What about the “Z-β-farnesene among reaction products (GC-FID)” value ([2]; FPP Mg, replicate 1) of the same molecule?
**A.** The value was 0.6.

**Q.** And the “epi-β-santalene among reaction products (GC-FID)” value ([2]; FPP Mg, replicate 1)?
**A.** Its value is 4.7.

**Q.** And the “α-E-bergamotene among reaction products (GC-FID)” value ([2]; FPP Mg, replicate 1)?
**A.** Its value is 13.8.

**Q.** What about the “α-santalene among reaction products (GC-FID)” value ([2]; FPP Mg, replicate 1) of the same molecule?
**A.** Its value is 51.7.

**Q.** What about the “β-santalene among reaction products (GC-FID)” value ([2]; FPP Mg, replicate 1) of the same molecule?
**A.** Its value is 27.8.

**Q.** And the “E-β-farnesene among reaction products (GC-FID)” value ([2]; FPP Mg, replicate 2)?
**A.** Its value is 1.3.

**Q.** What about the “Z-β-farnesene among reaction products (GC-FID)” value ([2]; FPP Mg, replicate 2) of the same molecule?
**A.** Its value is 0.6.

**Q.** And the “epi-β-santalene among reaction products (GC-FID)” value ([2]; FPP Mg, replicate 2)?
**A.** Its value is 4.6.

**Q.** What about the “α-E-bergamotene among reaction products (GC-FID)” value ([2]; FPP Mg, replicate 2) of the same molecule?
**A.** Its value is 14.6.

**Q.** What about the “α-santalene among reaction products (GC-FID)” value ([2]; FPP Mg, replicate 2) of the same molecule?
**A.** Its value is 51.5.

**Q.** And the “β-santalene among reaction products (GC-FID)” value ([2]; FPP Mg, replicate 2)?
**A.** Its value is 27.5.

**Q.** What about the “E-β-farnesene among reaction products (GC-FID)” value ([2]; FPP Mg, replicate 3) of the same molecule?
**A.** Its value is 1.5.

**Q.** What about the “Z-β-farnesene among reaction products (GC-FID)” value ([2]; FPP Mg, replicate 3) of the same molecule?
**A.** The value was 0.5.

**Q.** And the “epi-β-santalene among reaction products (GC-FID)” value ([2]; FPP Mg, replicate 3)?
**A.** The value was 5.1.

**Q.** And the “α-E-bergamotene among reaction products (GC-FID)” value ([2]; FPP Mg, replicate 3)?
**A.** The value was 15.2.

**Q.** And the “α-santalene among reaction products (GC-FID)” value ([2]; FPP Mg, replicate 3)?
**A.** The value was 50.7.

**Q.** What about the “β-santalene among reaction products (GC-FID)” value ([2]; FPP Mg, replicate 3) of the same molecule?
**A.** The value was 27.0.

**Q.** And the “E-β-farnesene among reaction products (GC-FID)” value ([2]; FPP Mn, mean)?
**A.** The value was 8.5.

**Q.** What about the “Z-β-farnesene among reaction products (GC-FID)” value ([2]; FPP Mn, mean) of the same molecule?
**A.** Its value is 0.9.

**Q.** What about the “epi-β-santalene among reaction products (GC-FID)” value ([2]; FPP Mn, mean) of the same molecule?
**A.** Its value is 1.2.

**Q.** And the “α-E-bergamotene among reaction products (GC-FID)” value ([2]; FPP Mn, mean)?
**A.** The value was 73.6.

**Q.** What about the “α-santalene among reaction products (GC-FID)” value ([2]; FPP Mn, mean) of the same molecule?
**A.** Its value is 10.2.

**Q.** And the “β-santalene among reaction products (GC-FID)” value ([2]; FPP Mn, mean)?
**A.** Its value is 5.3.

**Q.** And the “E-β-farnesene among reaction products (GC-FID)” value ([2]; FPP Mn, replicate 1)?
**A.** Its value is 8.3.

**Q.** What about the “Z-β-farnesene among reaction products (GC-FID)” value ([2]; FPP Mn, replicate 1) of the same molecule?
**A.** The value was 0.9.

**Q.** What about the “epi-β-santalene among reaction products (GC-FID)” value ([2]; FPP Mn, replicate 1) of the same molecule?
**A.** Its value is 1.4.

**Q.** And the “α-E-bergamotene among reaction products (GC-FID)” value ([2]; FPP Mn, replicate 1)?
**A.** Its value is 72.5.

**Q.** What about the “α-santalene among reaction products (GC-FID)” value ([2]; FPP Mn, replicate 1) of the same molecule?
**A.** Its value is 10.3.

**Q.** And the “β-santalene among reaction products (GC-FID)” value ([2]; FPP Mn, replicate 1)?
**A.** Its value is 5.3.

**Q.** And the “E-β-farnesene among reaction products (GC-FID)” value ([2]; FPP Mn, replicate 2)?
**A.** The value was 8.5.

**Q.** And the “Z-β-farnesene among reaction products (GC-FID)” value ([2]; FPP Mn, replicate 2)?
**A.** Its value is 0.9.

**Q.** And the “epi-β-santalene among reaction products (GC-FID)” value ([2]; FPP Mn, replicate 2)?
**A.** Its value is 0.8.

**Q.** And the “α-E-bergamotene among reaction products (GC-FID)” value ([2]; FPP Mn, replicate 2)?
**A.** Its value is 73.8.

**Q.** And the “α-santalene among reaction products (GC-FID)” value ([2]; FPP Mn, replicate 2)?
**A.** The value was 10.5.

**Q.** What about the “β-santalene among reaction products (GC-FID)” value ([2]; FPP Mn, replicate 2) of the same molecule?
**A.** The value was 5.5.

**Q.** And the “E-β-farnesene among reaction products (GC-FID)” value ([2]; FPP Mn, replicate 3)?
**A.** Its value is 8.6.

**Q.** What about the “Z-β-farnesene among reaction products (GC-FID)” value ([2]; FPP Mn, replicate 3) of the same molecule?
**A.** Its value is 0.9.

**Q.** What about the “epi-β-santalene among reaction products (GC-FID)” value ([2]; FPP Mn, replicate 3) of the same molecule?
**A.** The value was 1.2.

**Q.** What about the “α-E-bergamotene among reaction products (GC-FID)” value ([2]; FPP Mn, replicate 3) of the same molecule?
**A.** Its value is 74.4.

**Q.** And the “α-santalene among reaction products (GC-FID)” value ([2]; FPP Mn, replicate 3)?
**A.** The value was 9.7.

**Q.** What about the “β-santalene among reaction products (GC-FID)” value ([2]; FPP Mn, replicate 3) of the same molecule?
**A.** Its value is 5.1.

**Q.** What about the “Relative % composition in oil produced by enzyme: E-α-bergamotol” value ([2]; GC-FID) of the same molecule?
**A.** The value was 14.5%.

**Q.** And the “Relative % composition in oil produced by enzyme: β-santalol” value ([2]; GC-FID)?
**A.** Its value is 27.4%.

**Q.** What about the Kcat ([3]; FPP) of the same molecule?
**A.** Its Kcat is 0.0277 s⁻¹.

**Q.** And the Vmax ([3]; assays using FPP)?
**A.** Its Vmax is 0.54 µM/min.
